Results on 3 molecules are retold here after patent US20220195070A1 (Chugai, published 2022).

To fix the notation:
B1: SKA0127 (antibody, V domains shown)
VH: QSVEESGGRLVTPGTPLTLTCTVSGIDLSTYAMTWVRQAPGKGLEYIGYINGGGSAYYASWVNGRFTISKTSTTADLKITSPTTEDTATYFCARGPVGSYHRIWGPGTLVTVSS
VL: ALVMTQTPSSVSEPVGGTVTINCRASEDIESYLAWYQQKPGQPPKLLIYATSNLETGVPSRFKGSGSGTDYTLTISGVQCADAATYYCQGYYELSSIDNNAFGGGTEVVVKG
notes: Recombinant rabbit monoclonal from B-cell cloning, expressed in FreeStyle 293-F cells; the first screen used B-cell culture supernatant; also called Anti-SG115 Antibody; rabbit Anti Fc-Mutation Antibody
B2: SKA0054 (antibody, V domains shown)
VH: QSLEESGGGLVQPEGSLTLTCTASGFSFSSSFWICWVRQAPGKGLEWLACIDAGSSDNTYYANWAKGRFTISKTSSTTVTLQMTSLTDADTATYFCARDRDAAGDAGYGYATSFNLWGPGTLVTVSS
VL: AIDMTQTPSSVSAAVGGTVTINCQASESIYSNLAWYQQKPGQRPKLLIYLASTLASGVPSRFKGSGSGTEFTLTISDLECADAATYYCQSVYYDSRGDTFFWAFGGGTEVVVKG
notes: as for B1
B3: SKA0052 (antibody, V domains shown)
VH: QSLEESGGDLVKSGASLTLTCTASGFSFSSSYYMCWVRQAPGKGLEWIACIYTGSNGDTYYASWANGRFTISKASSTTVTLQMTSLTAADTATYFCARYTYDDDGDYTSFNLWGPGTLVTVSS
VL: ALVMTQTPSSVSADVGGTVTINCQASQNIYRNLAWYQQKPGQRPKLLIYGASNLEPGVPSRFKGSGSGTEFTLTISDLECDDAATYYCQSVGYSGSVDTFFYAFGGGTEVVVKG
notes: as for B1

T1 sequence (P01861 1-325 S108P limits assumed): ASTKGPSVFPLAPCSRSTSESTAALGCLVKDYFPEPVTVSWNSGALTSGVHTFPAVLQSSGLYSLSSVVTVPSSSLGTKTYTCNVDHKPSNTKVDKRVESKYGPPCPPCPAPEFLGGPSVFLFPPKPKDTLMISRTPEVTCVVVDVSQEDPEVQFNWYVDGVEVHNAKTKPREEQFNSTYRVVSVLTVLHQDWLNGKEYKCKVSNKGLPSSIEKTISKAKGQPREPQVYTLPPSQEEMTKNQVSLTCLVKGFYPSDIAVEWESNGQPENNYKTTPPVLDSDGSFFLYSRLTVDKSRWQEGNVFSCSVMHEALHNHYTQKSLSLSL
T5 sequence (P01857 other isoform, or with tags, fused parts or gaps limits assumed): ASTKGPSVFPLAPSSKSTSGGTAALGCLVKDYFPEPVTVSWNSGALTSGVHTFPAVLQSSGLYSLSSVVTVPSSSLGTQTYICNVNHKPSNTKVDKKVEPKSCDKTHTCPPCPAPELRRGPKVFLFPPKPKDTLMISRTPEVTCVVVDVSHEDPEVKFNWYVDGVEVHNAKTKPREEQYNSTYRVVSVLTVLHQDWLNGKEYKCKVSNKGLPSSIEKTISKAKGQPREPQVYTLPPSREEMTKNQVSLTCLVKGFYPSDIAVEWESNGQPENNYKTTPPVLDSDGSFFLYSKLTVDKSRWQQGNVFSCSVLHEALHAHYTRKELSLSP
T3 sequence (P01857 other isoform, or with tags, fused parts or gaps limits assumed): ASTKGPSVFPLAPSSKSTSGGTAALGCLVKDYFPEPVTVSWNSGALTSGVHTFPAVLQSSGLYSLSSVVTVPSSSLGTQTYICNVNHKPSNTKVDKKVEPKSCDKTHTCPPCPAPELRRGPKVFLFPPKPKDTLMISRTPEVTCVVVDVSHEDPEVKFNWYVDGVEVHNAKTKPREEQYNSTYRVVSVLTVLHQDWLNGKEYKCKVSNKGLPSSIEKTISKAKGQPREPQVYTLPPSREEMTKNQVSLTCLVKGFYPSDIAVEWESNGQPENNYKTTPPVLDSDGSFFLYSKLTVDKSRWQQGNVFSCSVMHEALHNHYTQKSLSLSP
T6 sequence (constant, as listed by the source limits assumed): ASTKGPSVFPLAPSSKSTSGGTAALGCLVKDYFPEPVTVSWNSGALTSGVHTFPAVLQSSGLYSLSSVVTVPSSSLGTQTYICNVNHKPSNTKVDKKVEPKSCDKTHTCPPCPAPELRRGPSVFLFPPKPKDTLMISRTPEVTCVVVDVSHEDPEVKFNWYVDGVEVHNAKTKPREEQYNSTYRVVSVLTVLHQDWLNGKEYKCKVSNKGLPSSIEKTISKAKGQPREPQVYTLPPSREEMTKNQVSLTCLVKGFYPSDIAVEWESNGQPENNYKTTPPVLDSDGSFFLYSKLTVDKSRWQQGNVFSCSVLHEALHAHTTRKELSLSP
T4 sequence (P01857 1-328 D239E/L241M limits assumed): as the sequence (constant, as listed by the source limits assumed) above, with R118L, R119G, G210A, S213A, S214P, L311M, A317N, T319Y, R321Q, E323S counted along it

One experiment concerns the target T1, G4d (human, UniProt P01861 1-325 = IgG part).
T1 construct: Construct used in the ELISA is not described beyond the constant region
The experiment in a line: ELISA, OD405 against dose (ng/mL, log axis 1-100). A general note: In an ELISA, binding on a coated surface is turned into a signal by an enzyme label.
With B1, the binding result is “no binding (tested: about 60 ng/mL)”.
Turning to B2, the binding result is “no binding (tested: about 60 ng/mL)”.
Still for that read-out and setting: the value for B3 was “no binding (tested: about 60 ng/mL)”.

The target in the next experiment is T2, SG115v2 (human, UniProt P01857 1-328 = IgG part).
T2 construct: Carries the CH3 modifications of SG115 (Leu428, Ala434, Arg438, Glu440, EU); Construct used in the ELISA is not described beyond the constant region; also called modified IgG heavy chain constant region SG115v2
T2 sequence (P01857 other isoform, or with tags, fused parts or gaps limits assumed): as the sequence (constant, as listed by the source limits assumed) above, with R118L, R119G, T319Y counted along it
Briefly: ELISA, OD405 against dose (ng/mL, log axis 1-100).
As to B1, the binding result was “no binding (tested: about 60 ng/mL)”.
On to B2, for which the binding result is “no binding (tested: about 60 ng/mL)”.
In the case of B3, the binding result is on record as “no binding (tested: about 60 ng/mL)”.

Another experiment addresses T3, SG115v1 (human, UniProt P01857 1-328 = IgG part).
T3 construct: Carries the CH2 modifications of SG115 (Arg235, Arg236, Lys239, EU); Construct used in the ELISA is not described beyond the constant region; also called modified IgG heavy chain constant region SG115v1
Briefly: ELISA, OD405 against dose (ng/mL, log axis 1-100).
Take B1: the binding result was “binds”.
For the molecule B2, the binding result is “binds”.
In the case of B3, the binding result is recorded as “binds”.

A further experiment addresses T4, Glm (human, UniProt P01857 1-328 = IgG part).
T4 construct: Construct used in the ELISA is not described beyond the constant region; also called G1m
The experiment in a line: ELISA, OD405 against dose (ng/mL, log axis 1-100).
In the case of B1, the binding result is listed as “no binding (tested: about 60 ng/mL)”.
In the case of B2, the binding result is “no binding (tested: about 60 ng/mL)”.
Still for that read-out and setting: next, B3: “no binding (tested: about 60 ng/mL)”.

Another experiment has as its target T5, SG115 (human, UniProt P01857 1-328 = IgG part).
T5 construct: also called modified IgG heavy chain constant region SG115
Briefly: ELISA, OD405 against dose (ng/mL, log axis 1-100).
In the case of B1, the binding result was “binds”.
On the same count and under the same terms, next, B2: “binds”.
For the molecule B3, the binding result is “binds”.

The next experiment has as its target T6, Anti-IL-8 Antibody.
T6 construct: also called anti-human IL-8 antibody; Fc-Mutated Antibody
Briefly: SPR (Biacore T200), 25 C, pH 7.4; SKA antibody captured by anti-rabbit IgG, Anti-IL-8 Antibody injected 0-800 nM. As for the experimental part: To confirm the binding ability of Anti Fc-Mutation Antibodies that show selective binding to SG115v1, KD values of Anti Fc-Mutation Antibodies against Anti-IL-8 Antibody at pH 7.4 were determined at 25 degrees C. using Biacore T200 instrument (GE Healthcare). Sequence of Fc region of Anti-IL-8 Antibody has high similarity to that of Anti-hC5 Antibody.
Anti-rabbit IgG (Abbexa) was immobilized onto FC1 and 2 of a CMS sensor chip using an amine coupling kit (GE Healthcare). For the immobilization of anti-rabbit IgG, HBS-EP+, pH7.4 (GE Healthcare) buffer was used as running buffer. After the immobilization, running buffer was changed to Phosphate pH7.4 buffer (50 mM phosphate buffer containing 150 mM NaCl and 0.05 w/v % P-20, pH 7.4). Each Anti Fc-Mutation Antibody was captured onto FC2 of the sensor chip by anti-rabbit IgG. The amount of Anti Fc-Mutation Antibody to be captured was adjusted so that the number of resonance units (RU) was 100. Anti-IL-8 Antibody was injected at 0, 100, 400, and 800 nM at 10 micro L/min. Sensor surface was regenerated after each cycle with 10 mM Glycine-HCl, pH2.0, which was injected at a flow rate of 30 micro L/min. KD values were obtained using Biacore T200 Evaluation software, version 2.0 (GE Healthcare).
A general note: Surface plasmon resonance follows binding to a sensor surface in real time, without labels.
B1: the affinity, expressed as Kd, was 45.4 nM; the koff – broadly, the rate constant with which the complex falls apart – was found to be 0.000804 s⁻¹; the kon (usually the second-order rate constant of association) stood at 17700 M⁻¹ s⁻¹.
B2: binding was put at a Kd of 96.8 nM, the koff amounted to 0.000966 s⁻¹ and the kon is 9980 M⁻¹ s⁻¹.
B3: the Kd (commonly a measure of binding affinity in units of concentration) amounted to 47 nM, the off-rate (koff) came to 0.00431 s⁻¹ and the kon is 91700 M⁻¹ s⁻¹.
